The text below walks through data of patent US8216580B2, “Sulfatases and methods of use thereof” (The Regents of the University of California, priority 2000, dated 2012).

For data set [1] the following is noted: comparison enzymes; cited from earlier work.
Data set [2] is described as follows: Arylsulfatase activity assay with 4-MUS substrate. The format is biochemical. Conditions: 1 milliunit, 24 hr incubation. The procedure:
The 100-fold concentrated conditioned medium (CM) derived from each transfection of CHO cells as described above was dialyzed into 50 mM HEPES, pH 8.0. The His-tagged fusion proteins were bound to a Ni-NTA resin (QIAGEN) by rotation at 4° C. over night, then washed with 50 mM HEPES (pH 8.0), 3 times. 250 mM imidazole in 50 mM HEPES, pH 8.0 was used to elute the His-tagged fusion proteins from Ni-NTA. The resins with boud material or the eluates were mixed with 10 mM 4-methylumbelliferyl-sulfate (4-MUS; a substrate for sulfatases), and 10 mM lead acetate, in a total volume of 100 μl. The reaction mixtures were incubated at 37° C. for various periods of time. Reactions were terminated by the addition of 100 μl of 0.5 M Na2CO3/NaHCO3, pH 10.7 to 20 μl of the reaction mixture. The fluorescence of 4-methylumbelliferone was measured on a Multi-Well Plate Reader CytoFluorII (PerSeptive Biosystems). The fluorescence was determined at an excitation wavelength of 360 nm and emission wavelength of 460 nm. A substrate dose response curve was performed over the concentration range of 1 to 10 mM 4-MUS.
The synthetic fluorogenic compound 4-methylumbelliferyl sulfate (4-MUS) serves as a substrate for most sulfatases, both in the lysosomal and non-lysosomal classes. CHO cells were transfected with a cDNA for HSulf-1 or HSulf-2 or a vector control. Conditioned medium was collected and incubated with nickel resin (Ni-NTA) to bind the His-tagged recombinant proteins. The bead-bound material was assayed for activity on 4-MUS. For both enzymes, hydrolysis depended on time of reaction (FIG. 15A), concentration of substrate (FIG. 15B), and amount of CM (FIG. 15C). From the substrate dose-response curves of FIG. 15B and based on estimates of Sulf protein levels in CM, we approximated Vmax for the two Sulfs to be in the range of 1000-2000 nmol per min per mg of Sulf protein. Human glucosamine-6-sulfatase has a considerably lower Vmax against 4-MUS ([…]) whereas the Vmax of human N-acetylgalactosamine-4-sulfatase (arylsulfatase B) is much higher (48000).
HSulf-1, HSulf-2 or their mutated forms (HSulf-1 ΔCC and HSulf-2 ΔCC) was purified from the conditioned medium of transfected CHO cells by binding to Ni-NTA beads. A) The bead-bound material was tested for arylsulfatase activity as a function of time against 10 mM 4-MUS substrate at pH 8. The “no-enzyme” control was based on testing conditioned medium from vector-control transfected CHO cells. No activity was detected in the absence of added substrate (not shown). […] The activity of each Sulf was determined relative to that of beads exposed to an equivalent volume of vector-control conditioned medium. The activity of HG6S was determined (24 hr incubation) relative to that of the buffer. […]

With “human N-acetylgalactosamine-4-sulfatase: human N-acetylgalactosamine-4-sulfatase (arylsulfatase B), comparison enzyme [reference compound]”, the Vmax against 4-MUS in data set [1] is 48000 nmol/min/mg.

B1: Human glucosamine-6-sulfatase: human lysosomal glucosamine-6-sulfatase, purchased from Glyko Inc. (protein, UniProt P15586 37-552, looked up)
N-acetylglucosamine-6-sulfatas …: VFGVAAGTRRPNVVLLLTDDQDEVLGGMTPLKKTKALIGEMGMTFSSAYVPSALCCPSRASILTGKYPHNHHVVNNTLEGNCSSKSWQKIQEPNTFPAILRSMCGYQTFFAGKYLNEYGAPDAGGLEHVPLGWSYWYALEKNSKYYNYTLSINGKARKHGENYSVDYLTDVLANVSLDFLDYKSNFEPFFMMIATPAPHSPWTAAPQYQKAFQNVFAPRNKNFNIHGTNKHWLIRQAKTPMTNSSIQFLDNAFRKRWQTLLSVDDLVEKLVKRLEFTGELNNTYIFYTSDNGYHTGQFSLPIDKRQLYEFDIKVPLLVRGPGIKPNQTSKMLVANIDLGPTILDIAGYDLNKTQMDGMSLLPILRGASNLTWRSDVLVEYQGEGRNVTDPTCPSLSPGVSQCFPDCVCEDAYNNTYACVRTMSALWNLQYCEFDDQEVFVEVYNLTADPDQITNIAKTIDPELLGKMNYRLMMLQSCSGPTCRTPGVFDPGYRFDPRLMFSNRGSVRTRRFSKHLL
Regarding B1, the “arylsulfatase activity at pH 5” value in data set [2] (pH 5) is “measurable activity”. The “arylsulfatase activity at pH 8” value in data set [2] (pH 8) is reported as “none”. Besides, in data set [1], the Vmax against 4-MUS is 100 nmol/min/mg.
